{
  "source": "patent US20020151683A1",
  "about": "(MOGAM BIOTECHNOLOGY RESEARCH INSTITUTE, published 2002)",
  "data": [
    {"molecular_target": "T1, HLA-A2.1, a human MHC Class I molecule, at the surface of T2 cell (human)", "T1 construct": "detected with BB7.2 antibody against HLA-A2.1; also called MHC Class I molecules at the surface of T2 cell", "test": "T2 cell MHC stabilisation assay, peptide 1-100 ug/ml, flow cytometry with BB7.2 anti-HLA-A2.1 and FITC anti-mouse Ig", "procedure": "Seven different peptides including the peptides as disclosed in Table 1 above which were derived from HBV X protein were synthesized chemically and dissolved in phosphate buffered saline (hereinafter, referred to as “PBS”). In order to investigate whether the peptides can bind to MHC Class I molecules associated with induction of CTL, each peptide was added to T2 cell line in a concentration of 100, 64, 32, 16, 8, 4, 2 and 1 μg/ml, respectively, and reacted at 37° C. for 4 hours. And then, the cells were washed with PBS to remove unreacted peptides, added with BB7.2 antibody against HLA-A2.1, a human MHC Class I molecule, and reacted at 4° C. for 1 hour. The cells were washed with PBS again, added with fluorescein isothiocyanate (FITC)-conjugated anti-mouse immunoglobulin antibody, and reacted at 4° C. for 1 hour. Then, fluorescence of the cells was determined using fluorocytometer (FACScan, BECTON DICKINSON) and the results were shown in FIG. 1.", "values": [
      {"binder": "EIRLKVFVL", "note": "[X7 peptide derived from HBV X protein (positions 126-134)]", "binding result": "binds"},
      {"binder": "HLSLRGLFV", "note": "[X3 peptide derived from HBV X protein (positions 052-060)]", "binding result": "binds"},
      {"binder": "CLFKDWEEL", "note": "[X6 peptide derived from HBV X protein (positions 115-123)]", "binding result": "binds"}
    ]}
  ]
}
